# B1: TPR t1 (parent)
# chain: GACCAAUCUGCCCUCAGAGCUCGAGAACAUCUUCGGAUGCAGAGGAGGCAGGCUUCGGUGGCGCGAUAGCGCCAACGUCCUCAACCUCCAAUGCAUCCCACCACAUGAUGAUGCCUGAAGAGCCUUGGUUUUUUG
# Variants of: B1
# Assay: polymerase ribozyme fitness, log enrichment relative to wild type (log ratio); higher = more active; in vitro selection for triplet polymerase activity
# Summary of the method: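 A heterodimeric triplet polymerase ribozyme had each of its subunits mutagenized by PCR into a library, which was transcribed. One round of in vitro selection, done in triplicate, annealed each library with a biotinylated primer, its partner subunit and triplets, then incubated it frozen at −7 °C before gel excision of extended constructs, streptavidin-bead capture and RT-PCR. Fitness is the logarithm of genotype enrichment relative to wild-type enrichment, based on Illumina sequencing of inputs and outputs and inverse-variance-weighted replicate averages. A base-2 logarithm is used, and genotypes were kept only with ≥10 input reads and ≥1 read per output.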
row,Variant,polymerase ribozyme fitness (log ratio)
1,GACCAAUCUGCCCUCAGAGCUCGAGAACAUCUUCGGAUGCAGAGGAGGCCGGCUUCGGUGGCGCGAUAGCGCCAACGUCCCCAACCUCCAAUGCAUCCCACCACAUGAUGAUGCCUGAAGAGCCUUGGUUUUUUG [A50C U81C],0.175
2,GACCAAUCUGCCCUCAGAGCUCGAGAACAUCUUCGGAUGCAGAGGAGGCCGGCUUCGGUGGCGCGAUAGCGCCAACGUCCUCAACCUCCAAUGCAUCCCACCACAUGAUGAUGCUUGAAGAGCCUUGGUUUUUUG [A50C C115U],-1.47
3,GACCAAUCUGCCCUCAGAGCUCGAGAACAUCUUCGGAUGCAGAGGAGGCCGGCUUCGGUGGCGCGAUAGCGCCAACGUCCUCAACCUCCCAUGCAUCCCACCACAUGAUGAUGCCUGAAGAGCCUUGGUUUUGUG [A50C A90C U133G],-1.46
4,GACCAAUCUGCCCUCAGAGCUCGAGAACAUCUUCGGAUGCAGAGGAGGCCGGCUUCGGUCGCGAGAUAGCGCCAACGUCCUCAACCUCCAAUGCAUCCCACCGAAUGAUGAUGCCUGAAGAGCUUUGGUUUUUUG [A50C G60C C64A A103G C104A C124U],-5.11
5,GACCAAUCUGCCCUCAGAGCUCGAGAACAUCUUCGGAUGCAGAGGAGGCCGGCUUCGGUGGCGCGAUAGCGCCAACGUCCUCAACCUCCAAUGCAUCCCACCACAUGAUAAUGCCUGAAGAGCCUUGGUUUUUUG [A50C G110A],-2.37
6,GACCAAUCUGCCCUCAGAGCUCGAGAACAUCUUCGGAUGCAGAGGAGGCCGGCUUCGGUGGCGCGAUAGCGCCAACGUCCUCAACCUCCAAUGCAUCCCACCACAAGAUAAUGCCUGAAGAGCCUUCGUUUUUUG [A50C U106A G110A G127C],-3.34
7,GACCAAUCUGCCCUCAGAGCUCGAGAACAUCUUCGGAUGCAGAGGAGGCCGGCUUCGGUGGCGCGAUAGCGCCAACGUCCUCAACCUCCAAUUCAUCCCACCACAUGAUGAGGCCUGAAGAGCCUUGGUUUUUUG [A50C G93U U112G],-2.03
8,GACCAAUCUGCCCUCAGAGCUCGAGAACAUCUUCGGAUGCAGAGGAGGCCGGCUUCGGUGGCGCGAUAGCGCCAACGUCCUUAACCUCCAAUGCAUCCCACCACAUGAUGAUGCCUUAAGAGCCUUGGUUUUUUG [A50C C82U G117U],-2.93
9,GACCAAUCUGCCCUCAGAGCUCGAGAACAUCUUCGGAUGCAGAGGAGGCCGGCUUCGGUUGCGCGAUAGCGCCAACGUCCUCAACCUCCAAUGCAUACCACCACAUGAUGAUGCCUGAAGAGCCUUGGUUUUUUG [A50C G60U C97A],-5.38
10,GACCAAUCUGCCCUCAGAGCUCGAGAACAUCUUCGGAUGCAGAGGAGGCCGGCUUCGGUGCCGCGAUAGCGCCAACGUCCUCAACCUCCAAUGCAUCCCACCACAUGAAGAUGCCUGAAGAGCCUUGGUUUUUUG [A50C G61C U109A],-6.96
11,GACCAAUCUGCCCUCAGAGCUCGAGAACAUCUUCGGAUGCAGAGGAGGUAGGCUUCGGUGGCGCGAUAGCGCCAACGUCCACAACCUCAAAUGCAUCCCACCACAUGAUGAUGCCUGAAGAGCCUUGGUUUUUUG [C49U U81A C89A],-4.05
12,GACCAAUCUGCCCUCAGAGCUCGAGAACAUCUUCGGAUGCAGAGGAGGCCGGCUUCGGUGGCGCGAUAGCACCAACGUGCUCAACCUCCAAUGCAUCCCACCAAAUGAUGAUGCCUGAAGAGCCUUGGUUUUUUG [A50C G71A C79G C104A],-5.88
13,GACCAAUCUGCCCUCAGAGCUCGAGAACAUCUUCGGAUGCAGAGGAGGCCGGCUUCGGUGGCGCGUUAGCGUCAACGUCCGCAAACUCCAAUGCAUCCCACCACAUGAUGAUGCCUGAAGAGCCUUGGUUUUUUG [A50C A66U C72U U81G C85A],-3.05
14,GACCAAUCUGCCCUCAGAGCUCGAGAACAUCUUCGGAUGCAGAGGAGGCCGGCUUGGGUGGCGCGAUAGCGCCAACGUCCUCAACCUCCAAUGCAUCCCACCACAUGAUGAUGCCUGAAGAGCCUUGGUUUUUUG [A50C C56G],-0.303
15,GACCAAUCUGCCCUCAGAGCUCGAGAACAUCUUCGGAUGCAGAGGAGGCCGGCUUCGGCGGCGCGAUAGCGCCAACGUCCUCAACUUCCAAUGCAUCCCACCACAUGAUGAUGCCUGAAGAGCCUUGGUUUUUUG [A50C U59C C86U],-0.825
16,GACCAAUCUGCCCUCAGAGCUCGAGAACAUCUUCGGAUGCAGAGGAGGCCGGCUUCGGUGGUGCGAUAGCGCCAACGUCCUCAACCUCCAAUGUAUCCCACCACAUGAUGAUGCCUGAAGAGCCUUGGUUUUUUG [A50C C62U C94U],-0.553
17,GACCAAUCUGCCCUCAGAGCUCGAGAACAUCUUCGGAUGCAGAGGAGGCCGGCUUCGGUGGCGCGAUAGCGGCAACGUCCUCAACCUCCAAUGCAUCCCACCACAUGAUGAUGCCUGAAGAGCCUUAGUUUUUUG [A50C C72G G127A],-2.8
18,GACCAAUCUGCCCUCAGAGCUCGAGAACAUCUUCGGAUGCAGAGGAGGCCGGCUUCGGUGGCGCGAUAGCUCCAACGUCCUCAACCUCCAAUGCAUCCCAGCACAUGAUGAUGCCUGAAGAGCCUUGGUUUUUUG [A50C G71U C101G],-2.67
19,GACCAAUCUGCCCUCAGAGCUCGAGAACAUCUUCGGAUGCAGAGGAGGCCGGCUUCGGUGGCGCGAUAGCGCCAACGUCCUCAACGUCCAAUGCAUCCCACCACAUGAUGAUGCCUGAAGAGCCUUUGUUUUUUG [A50C C86G G127U],-2.12
20,GACCAAUCUGCCCUCAGAGCUCGAGAACAUCUUCGGAUGCAGAGGAGGUAGGCUUCGGUGGCGCGAUAGCGCCAACGUCCUCAACCUCCAAUGCAUCCCACCACAAGAUGAUGCCUGAAGAGCCUAGGUUUUUUG [C49U U106A U126A],-2.78
21,GACCAAUCUGCCCUCAGAGCUCGAGAACAUCUUCGGAUGCAGAGGAGGCCGGUUUAGGUGGCGCGAUAGCGCCAACGUCCUCAACCUCCAAUGCAUCCCACCACAUGAUGAUGCCUGAAGAGCCUUGGUUUUUUG [A50C C53U C56A],-0.754

row,Variant,polymerase ribozyme fitness (log ratio)
1,GACCAAUCUGCCCUCAGAGCUCGAGAACAUCUUCGGAUGCAGAGGAGGCCGGCUUCGGUGGCGCGAUAGCGCCAACGUCCUCAACCUCCAAUGCAUCCCACCACAUGAUGAUGCCUGAAGAGCCUUGGAUUUUUG [A50C U129A],-1.83
2,GACCAAUCUGCCCUCAGAGCUCGAGAACAUCUUCGGAUGCAGAGGAGGCCGGUUUCAGUGGCGCGAUAGCGCCAACGUCCUCAACCUCCAAUGCAACCCACCACAUGAUGAUGCCUAAAGAGCCUUGGUUUAUUG [A50C C53U G57A U96A G117A U132A],-5.61
3,GACCAAUCUGCCCUCAGAGCUCGAGAACAUCUUCGGAUGCAGAGGAGGCCGGCUCCGGUGGCGCGAUAGCGCCAACGUCCUCAACCUCCAAUGCAUCCCACCACAGGAUGAUGCCUGAAGAGCCUUGGUUUUUUG [A50C U55C U106G],-2.2
4,GACCAAUCUGCCCUCAGAGCUCGAGAACAUCUUCGGAUGCAGAGGAGGCCGGCUUCGGUGGCGCGCUAGCGCCAACGUCCUCAACCUCCAAUGCAUCCCUCCACAUGAUGAUGCCUGAAGAGCCUUGGUUUUUUG [A50C A66C A100U],-3.95
5,GACCAAUCUGCCCUCAGAGCUCGAGAACAUCUUCGGAUGCAGAGGAGGCCGGCUUCGGUGGCGCGAUAGCGACAACGUCCUCAACCUCCAAUGCAUCCCACCACAUGAUGAUGCCUGAAGAGCUUUGGUAUUUUG [A50C C72A C124U U130A],0.593
6,GACCAAUCUGCCCUCAGAGCUCGAGAACAUCUUCGGAUGCAGAGGAGGCCGGCUUCGGUGGCGCGAUAGCGCCAACUUCCUCAACCUCCAAUGCAUCCCACCACAUGAUGAUGCGUGAAGAGCCUUGGUUUUUUG [A50C G77U C115G],-1.98
7,GACCAAUCUGCCCUCAGAGCUCGAGAACAUCUUCGGAUGCAGAGGAGGCCGGCUUCGGUGGCGCGAUAGCGCCAACGUCCUCAACCUCCAAUGCAUCCCACCAUAUGAUAAUGCCUGUAGAGCCUUGGUUUUUUG [A50C C104U G110A A118U],-0.437
8,GACCAAUCUGCCCUCAGAGCUCGAGAACAUCUUCGGAUGCAGAGGAGGCCGGCUUCGGUGGCGUGAUAGCGCCAACAUCCUCAACCUCCAAUGCAUCCCACCACAUGAUGAUGCCUGAAGAGCCUUGGUUUUUUG [A50C C64U G77A],-0.681
9,GACCAAUCUGCCCUCAGAGCUCGAGAACAUCUUCGGAUGCAGAGGAGGCCGGCUUCGGUGGCGCGAUAGCGCCAACGUCCUCAACCUCCAAUGCAUGCCACCACAUGAUGAUGCCUGAAGAGCCUUGGUUUUUUG [A50C C97G],-6.04
10,GACCAAUCUGCCCUCAGAGCUCGAGAACAUCUUCGGAUGCAGAGGAGGCCGGCUUCGGUGGCGCGAUAGCGCCAACGUCCUCAACCGCCAAUGCAUCCCACCACAUGAUGAUGCCUGAACAGCCUUGGUUAUUUG [A50C U87G G120C U131A],0.982
11,GACCAAUCUGCCCUCAGAGCUCGAGAACAUCUUCGGAUGCAGAGGAGGCCGGCUUCGGUGUCGCGAUAGCGCCAACGUGCUCAACCUCCAAUGCAUCCCACCACAUGAUGAUGCCUGAAGAGCCUUGGCUUUUUG [A50C G61U C79G U129C],-2.24
12,GACCAAUCUGCCCUCAGAGCUCGAGAACAUCUUCGGAUGCAGAGGAGGCCGGCUUCGGUGGCGCGAUAGCGCCAACGUCCUCAACCCCCAAUGCAUCCCACCACAUGAUGAUGCCUGAAGAGCCUUGGUUUUUUG [A50C U87C],-0.237
13,GACCAAUCUGCCCUCAGAGCUCGAGAACAUCUUCGGAUGCAGAGGAGGCCGGCUUCGGUGGCGCGAUAGCGCCAACGUGCUCAACCUCCAAUGCAUCCCACCACAUGAUGAUGCCUGAAGAGCCAUGGUUUUUUG [A50C C79G U125A],-1.78
14,GACCAAUCUGCCCUCAGAGCUCGAGAACAUCUUCGGAUGCAGAGGAGGCCGGCUUCGGUGGCUCGAUAGCGCCAACGUCCACAACCUCCAAUGCAUCCCACCACAUGAUGAUGCCUGAAGAGCCUUGGUUUUUUG [A50C G63U U81A],-1.63
15,GACCAAUCUGCCCUCAGAGCUCGAGAACAUCUUCGGAUGCAGAGGAGGCCGGCUUCGGUGGAGCGAUAGCGCCAACGUUCUCAACCUCCAAUGCAUCCCACCACAUGAUGAUGCCUGAAGAGCCUUGGUUUUUUG [A50C C62A C79U],-1.8
16,GACCAAUCUGCCCUCAGAGCUCGAGAACAUCUUCGGAUGCAGAGGAGGCCGGCUUCGGUGGCGCGAUAGCGCCAACGUCCUCAACCUCCAAUGCAUCCCACCACAUAAUGAUGCCUGAAGAGCCUUGGUUUUUUG [A50C G107A],-6.09
17,GACCAAUCUGCCCUCAGAGCUCGAGAACAUCUUCGGAUGCAGAGGAGGCCGGCUUCGGUGGCGCGAUAGCGCCAACGUCCUCAACCUCCAAUGCAUCCCACCACAUUAUGAUGCCUGAAGAGCCUUGGUUUUUUG [A50C G107U],-5.95
18,GACCAAUCUGCCCUCAGAGCUCGAGAACAUCUUCGGAUGCAGAGGAGGCCGGUUUCGGUGGCGCGAUAGCGCCAACGUCCUCAACCUCCAAUGCAUUCCACCACAUGAUGAUGCCUGAAGAGCCUUGGUUUUUUG [A50C C53U C97U],-1.01
19,GACCAAUCUGCCCUCAGAGCUCGAGAACAUCUUCGGAUGCAGAGGAGGUAGGCUUCGGUGGCGCGAUAGCGCCAACGUCCGCAACCUCCAAUGCACCCCACCACAUGAUGAUGCCUGAAGAGCCUUGGUUUUUUG [C49U U81G U96C],-4.63
20,GACCAAUCUGCCCUCAGAGCUCGAGAACAUCUUCGGAUGCAGAGGAGGCCGGCUUCGGUGGCGCGAUAGGGCCAACGUCCUCAACCUCCAAUGCAUCCCACCACAUGAUGAUGCCUGAAGAGCCUUGGUUUUUUG [A50C C70G],-3.56
21,GACCAAUCUGCCCUCAGAGCUCGAGAACAUCUUCGGAUGCAGAGGAGGCCGGCUUCGGUGGCGCGAUAGUGCCAACGUCCUCAACCUCCAAUGCAUCCCACCACAUGAUGAUGCCUGAAGAGCCUUGGUUUUUUG [A50C C70U],-2.04
